Test results from a protein production outcome set (Wang et al. 2014).

Experiment: label from the status in PepcDB records

Sequence | protein production
MKFRTLLVVNKVVVFAKLLSVLQKVEKTAFLILCSEADEEIRLVTKADAFNGLYTSALLRKSEFFEDYRIESKYHNLIGLEFQLSAFEDAIRASSNAAGVIMKLSKKEQACISFHIQTLTSNIIQDVPVRVITPTQIEELAEPNLPPCSGVVLSPLQKIAILIEKFRHVSQSIQLTLQSTQAAELHIKCHSETLEVETCIKGLKIVTLNSEESSSEIEQSTSASVDGRHLSKAMFAAYLIPQRAFCCKLSILNHGNIHWIH | failed
LENDRTTFRIRNLDSGEIIWSGMGAVYPVYSPSFDHAADAFAFAFSSPADPPEIHLLRDAETKSSINSHLDGVSPYPAEIVEWKAKDGEDLYGILRLIDPKNPLIVYIHGGPTSFSYASFLDRTSIYLGYGFNVFAPNYRGSVGKGRRYAELNVGDLGGKDFDDVISGIEFLKNTGKIATDR | failed
MEIHFEKVTSDNRKAVENLQVFAEQQAFIESMAENLKESDQFPEWESAGIYDGNQLIGYAMYGRWQDGRVWLDRFLIDQRFQGQGYGKAACRLLMLKLIEKYQTNKLYLSVYDTNSSAIRLYQQLGFVFNGELDTNGERVMEWTHQNK | not failed
MASGLSEIGSTKMFDGYNKRYKHFSETLGCSMTFSIYFPPSASSSHKSPVLYWLSGLTCTDENFIIKSGAQRAASTHGIALVAPDTSPRGLNVEGEADSYDFGVGAGFYLNATQEKWKNWRMYDYVVKELPKLLSENFSQLDTTKASISGHSMGGHGALTIYLRNLDKYKSVSAFAPITNPINCAWGQKAFTNYLGDNKAAWEEYDATCLISKYNNLSATILIDQGENDQFYPDQLLPSKFEEACKKVNAPLLLRLHPGYDHSYYFIATFIEDHISHHAQALEL | failed
MKLDHNFSNQAIDAFIKISALSVLVLWCFSILKPFLLLMVWGGIIATALYPIVAFFSKKTALSESKVSIILTVIGVLLLLIPLVALSTGIYTSGTELFLGYQDGSIAIPKPKERMQDWPIIGHEAYSFMSLASSNLESLLFKYSAEVKVVAAKAASLVGSLGGGFIQFIVSTIIAGVFMANAAKCERAFILITNRLTGKHGEELIKLSKITIRSVVQGVIGVAVIQATMAGLGMAVVGISASVLGLWVFLVLVFAIIQLPPILILLPIIFYVFSVDTTTAGVLFAVWCVLVSSSDAILKPVLLSRGSHIPIIVILLGALGGMAMSGIVGLFVGAVVLSLTYQMFTVWLKNEAEETQNAKDNP | failed
PWQHFIIGSLFGWVHKETKLRRFKEALIFMGRKNGKTTTISGVANYAVSQDGENGAEIHLLANVMKQARILFDESKAMIKASPKLDKNFRTLRDEIHYDATISKIMPQASDSDKLDGLNTHMGIFDEIHEFKDYKLISVIKNSRAARLQPLLIYITTAGYQLDGPLVDMVEAGRDTLDQIIEDERTFYYLASLDDDDDINDSSNWIKANPNLGVSINLDEMKEEWEKAKRTPAERGDFITKRFNIFANNDEMSFIDYPTLQKNNEIVSLEELEGRPCTIGYDLSETEDFTAACATFALDNGKVAVLSHSWIPKHKVEYSNEKIPYREWEEDGLLTVQDKPYIDYQDVLNWIIKMNEHYVVEKITYDRANAFKLNQELKNYGFETEETRQGALTLSPALKDLKEMFLDGKIIFNNNPLMKWYINNVQLKLDRNGNWLPSKQSRYRKIDGFAAFLNTYTDIMNKVVSDKGEGNIEFISIKDIMR | failed
MLKFRSHTKELLDGDAIPEKDLFQNLKELDTINKLLGGYKISLSAIDELIKNAAAYKLVDIGCGGGDTLKYMYHWAKRTDKNLSLVGIDIKPVCIEYAKTNTADLPIQYICDDYKQAFNHIEKIDFIHACLFCHHLSEEQLVELIQFALINKTTLVVNDLERNPIAYYSIKWLTAIFSHSYLVKNDAPLSVARGFKKKEWEALLKKAGAATYSVKNKWAFRHQVIVYGNQ | failed
MQREKTQTNLRLDEGGGSVWQKCSRHEGRFVCVAGVCPYCLHERLSSLCPDCAHDLPCSCTPRASVSSRGEGDVSFARIGSVGRVANLIECEPAFRRSTSITGPYFWSAKPEPILETEKDLKPGRGRWLWRLFRGNREEETKIKAAKVMKKSNSVAGEVLFSPTPVTSKGNGWYFPSPIKVFRQSRVSKMIFQQRSPLYRG | failed
MQSTAFSLYIIDTLHDSLIFATILMSALLPKIILGPLGGVFVDWFDRKKFLVVIDLISGVLLLISALVYGNNLSLPIIYFICISLGIMNSVDEPLVVALIPSLVEKEKLVTANSINMFSTALGNIIGPILGAVVYSSFGIDTILYINASSFIIGAILEFMINIENKKKISQSKTIFNFLEDFKAGLIYIVRNRIILVIVVSIFFQNFFFNGATTVGVPFLAKQILKVSNAEFAILETTLIVGSIFGLLVASNLIKDKPLASLFPKLLFVISVCFLMIGLICIFLLKKQLMAYVFIAIIYICLGMLSMNVNVLFQTEMQKIVDESMFGRVSSLILSLIMSSIPLGQLVYGYLFKVVSPSIPFLVTFIAICCVSTLFSLSLRNSEL | failed
ASETQQWKTLEDTRSALMGVYGLTRAALADNNTHWICGDLRKGDFTVYKRSDLQAVSDNELNKPYDLLKKVSNWRRFYAVINAASVFMEKAPRTVELDRSYSEQNLKYDIAQVRALRAFAYFYMVRIWGDVPLVTYSYDNGTFPSMPRTDAQTVLSYAKAELLTAIEDLPYQYGTQTNLYYGSYGAQWQGKLFNKLSAYSVLAHICAWQGNYAEAETYSAFIIDHASEINAKYTSIADLTSETGLFYSNASVKGSRILGFNFAHNDNEATQSGHLEQLTLAYPLVQKSYPEIYISKDSLFSIFTNFDDLRFGIIDTIKYSSYYVQNLNEETPVFSKIKIIQDGSAKDNDFGVFGSSIVFTRLEDITLLRAEALCALNRSTEAVSYLNMIRTNRGLREVSFKKDFGNNRESLIAEIFEERRRELMGEGWRWYDLVRRQKLMKDNEAFLRLISSGGIYWPVSEDIITANSQIEQNEFWK | not failed
MAVESAAVGVFDSGVGGLSVLREIRARLPSESLLYVADNAHVPYGEKSAEYIRERCERIGDFLLEQGAKALVLACNTATAAAAAELRERYPQVPLVAMEPAVKPAAAATRNGRVGVLATTGTLKSARFAALLDRFASDVQVFTQPCPGLVERIEAGDLYGPQTRALLERLLAPILEQGCDTLILGCTHYPFVKPLLAELIPAEMAVIDTGAAVARQLERVLSARALLASGQAATPRFWTSALPEEMERILPILWGSPESVGKLVV | failed
MNDRMDPPPPRIEDILPHRGSMLLLAHVDTWDDETLRASAHVDPTAWYADPEGAMPAWFGIELMAQAIAAHVGLLSMREGNPARPGVLLGSRKYEAHAPAFAPAQPLSIAVQEVLRSTEGHGAYACTIAAGGRDLAQAVIKVYQPTDFQAFIEGSFAS | failed
MILPWLILIPFIGGLLCWLGERFGATLPRWIALLTMTLELALGLWLWAHGNYSFAPAPGADPTWAIEFKHVWIERFGINVHLALDGLSLLMILLTGLLGILSVLCSWKEIQRHVGFFHLNLMWILGGVVGVFLALDLFMFFFFWEMMLVPMYFLIALWGHSSADGKKTRIYAATKFFIFTQASGLIMLVAILGLVLVNFNNTGVITFDYAQLLKTKMSTATEYILMLGFFIAFAVKLPVVPFHSWLPDAHAQAPTAGSVDLAGILLKTAAYGLLRFALPLFPNASAEFAPIAMTLGLIGIFYGAFLAFAQTDIKRLIAFSSVSHMGFVLIGIYSGSQQALQGAVIQMLAHGVSAAALFILSGQLYERTHTRDMREMGGLWSRIAYLPAISLFFAAASLGLPGTGNFVGEFLILIGTFVSAPWITAIATSGLVFGSVYSLIMIHRAYFGPSKSDAVLHGMDARELIMVLGLAVLLIYIGVYPQPFLDTSAATMHGVQQWLSTAFTQLASAR | failed
TLLLCFIVAGLTGLGDNFTTISWFTFLDFRVQGDYLYFSPLAQSLDEGQWWRLVSPMLLHFGVLHLAMNSLWYWELGKRIELRQGPWALLGLTLLFSLVSNLAQHYTSGPSLFGGLSGVLYGLLGHIWLYQWLAPDRYFNLPKGVLVMMLIWLVVCLTGVVGTLGLGQIANAAHVGGLLIGCLTGLLGGALARRKLSA | failed
VGDGKNQIFVKSLDGYREVQITDEKEGVSTFKWGPTGKGLYYVTQSKECEEIKKRKDLYGDFQHIGKEHQNNCLYYIEIEKVIQSDTDEHKNRVVYQLTDGKDFHIHEFDISNDGKKVVFMATPSSNMADYINGDLYILHIKAGELQKLNVDKLLGGSVCFSPDGSEICYTASIREKGYYRNHIQDSTLEIYDINTGELIQPLTDFD | failed
MHMQVIQLHHPYEPNQIPNEEVVMVLGFFDGVHKGHQKVIETGKKIAEEKGLKLAVMTFNQHPSIVFQKVLPENMKYLTSLEQKERLMANLGVDILYIVEFTSAFAQLKPQDFVDQYIVNLNSAVAVSGFDYTYGPKEIAGVKQLPTYAQGRFEVVTVPKEEMTGAKISSTRIREKMEAGEMEEVTELLGYIYETEGTVVHGDARGRLLGFPTANVKVKSTVRLPRIGVYAVQIEVGGKWYVGMGSIGHNDTFGEGRDLTVEVYILDFHQDIYGEQVVVRWNHYLRDQVKFNGAEALIDQLKQDERDTADYFQQSEDK | failed
MSSDAVSKYTPGIYRTSIRLNNNTFDVEVTVDQDQIQSIHLANLSESTSAMFPLVEPVLDSLSSQIYSGQSLDDLEYSSDQKYTALMLIHAIDEAVTKAEADLEHHHHHH | not failed
MEIRMSKSSSKPVLVTCGLPYANGKAHIGHLRTYVPADIYARSLKKEGREVTFVCGSDTHGTPIVVNAEELGITPTELVEIYHKHFDETFKQLGIYFDAFGTTDDPENHNRTHDIVSRLIEKGYVYPKIIEIAYCPACNRFLPDRYVEGACPHCGETARGDECDQGCGKHLEPGELQNPVCTICGGPAEYRQQEHFFFKLSEFSNYLMDYLSKDLGGTTNAINYARGWVKQGLTDWCITRNLEWGVKFPGHEDLVVYVWVDAPIGYIAFTEEWAAQAGDSWEKFWKGDGEIVHFIGGDITYHHCIFWPAMLKGADYSVPTAVVASGMVKIEDRKFSKTRGYVVWVGEDYLDHGFHPDLLRYYLASYTSHTKELNFSWRVLQEKINAELVAVLGNFLYRTMLFAFKNYGEVPEGEVEPEIRKEIEKALVEVKAAMEEYEFKKAVDSAMALASFGNTYFQSHEPWKLIKEDRDACGQVVYNCLHLAKALSLIFEPVIPQTMEKAWKGLGHESDIHAALYEETLVPLKAGTKLAKPEILFTKLEDDRIGEMEEIANQRVAAANAKRNGVKGGEKEPSKSEGMGPSEASKASEKTVDVATAEEKVQVETLPVIDYEDFAKLDIRVGKVLLVEPVKKSKKLLRIEVDIGEEKPRQLVAGMASYYTPEELVGKSVIVLANLKPAKLCGVESNGMMLAADDGGAIVAALMPDKEIKSGSRIR | failed
MTQFKLIGFDLDGTLVNSLPDLALSINSALKDVNLPQASENLVMTWIGNGADVLSQRAVDWACKQAEKELTEDEFKYFKRQFGFYYGENLCNISRLYPNVKETLEALKAQGYILAVVTNKPTKHVQPILTAFGIDHLFSEMLGGQSLPEIKPHPAPFYYLCGKFGLYPKQILFVGDSQNDIFAAHSAGCAVVGLTYGYNYNIPIAQSKPDWIFDDFADILKITQ | not failed
MEDDVTTTERLPAPPLDTASKRVGFISLGCPKALVDSERILTQLRAEGYEVAPSYEGADAVIVNTCGFITPAVEESLSAIGEALDATGKVIVTGCLGERPEKIMERHPKVAAITGSEAVDDVMGHVRELLPIDQGAFTGLLPVAAPGMRAGVETPQRENTRHGDVFAPSVKLTPRHYAYVKVAEGCNHTCAFCIIPKLRGLQVSRDAGAVLYEAYRLIAGGTKELMIIAQDTSAYGVDLRYRESEFQGEQVRAHLTDLAVKLGEMGAWVRMHYVYPYPHVDRVVELMAQGKVLPYLDIPLQHASPKILKLMRRPGAGKQLDTIRRWREICPELVIRSTFIVGFPGETEEDFQELLQFLEDARLDRVGAFPYSDIEEADANALPGAVPEEVKQERLARFMEVAQRISTEKLSEKVGRVMDVIIDEFNDDEDDQPGTRLIGRTKGDAPGIDGQVYLYAGDFAGLVKIGDIVRARIEDSDEYDLFGEVIEKPEWKPNVPQLGHFGKH | failed
